Positions of bridges follow the written chain, without caps; N, C: chain ends. Groups on a side chain read outwards from the residue. Primed or numbered codes have the meaning given here. Chains are numbered I, II in the order given. No end group written: not given here. *: point of attachment. ivDde′ = 1-(4,4-dimethyl-2,6-dioxocyclohex-1-ylidene)-3-methylbutyl, CC(C)CC(=C1C(=O)CC(C)(C)CC1=O)*; Biotin = O=C1N[C@H]2[C@H](CS[C@H]2CCCCC(=O)*)N1; AEEA = NCCOCCOCC(=O)O
Columns and labels:
[1] = target: T1, KDR (VEGFR-2, Flk-1), full-length receptor on cells (human, UniProt P35968 20-1356); assay: competition: corresponding free peptide against D23-conjugated microbubbles on KDR-transfected 293H cells, % binding (surface covered, relative)
T1 construct: whole, on cells; endogenous on HUVECs in the functional assays; also called VEGF receptor 2
Method: (§1) The transfected cells were incubated with a suspension of peptide-conjugated microbubbles in presence or absence of the corresponding free peptide (between 100 μM to 3 nM). Competition was also performed using a non-binding control peptide as a competing compound. At the end of the incubation, the transfected cells were rinsed three times in PBS and examined under a microscope. Binding of the conjugated bubbles was quantified and expressed as a percent of the surface covered by the targeted microbubbles.

[2] = target: T1, KDR (VEGFR-2, Flk-1), full-length …; assay: competition: free dimer against P13-conjugated microbubbles on KDR-transfected 293H cells, % binding
Method: (§2) At the end of the incubation, the transfected cells were rinsed three times in PBS and examined under a microscope. Binding of the conjugated bubbles was quantified and expressed as a percentage of the surface covered by the targeted microbubbles.

[3] = target: T1, KDR (VEGFR-2, Flk-1), full-length …; assay: cell-based or functional assay
[4] = target: T2, KDR-Fc (chimeric fusion of Ig Fc region with human KDR, R&D Systems #357-KD-050) (human, UniProt P35968 20-764); assay: fluorescence polarisation against KDR-Fc
T2 construct: Bought; also called KDR Fc fusion; not shown: Ig Fc region of the bought chimera

[5] = target: T1, KDR (VEGFR-2, Flk-1), full-length …; assay: competition with 125I-labeled VEGF for binding to KDR-transfected 293H cells, % inhibition of specific binding
From the text: (§3) After washing the cells, the bound radioactivity was quantitated on a gamma counter.

[6] = target: T1, KDR (VEGFR-2, Flk-1), full-length …; assay: P13-conjugated microbubbles on KDR-transfected 293H cells in the presence of rising free dimer (f5), % binding
Method: as §2

[7] = target: T1, KDR (VEGFR-2, Flk-1), full-length …; assay: binding of the 99mTc-labeled scrambled dimer (D18 by legend paragraph 74; name box empty) to KDR- and mock-transfected 293H cells with and without 40% mouse serum, bound CPM
Method: Cells were used 24 h after transfection, and to prepare the cells for the assay, they were washed 1× with 100 μL of room temperature opti-MEMI with 0.1% HSA. […] Each dilution was added to three separate wells of mock and KDR-transfected cells. After incubating at room temperature for 1 h, the plates were washed 5 times with 100 μL of cold binding buffer (opti-MEMI with 0.1% HSA). 100 μL of solubilizing solution (0.5 N NaOH) was added to each well, and the plates were incubated at 37° C. for 10 minutes. The solubilizing solution in each well was mixed by pipeting up and down, and transferred to 1.2 mL tubes. Each well was washed once with 100 μL of solubilizing solution and the washes were added to the corresponding 1.2 mL tube.

[8] = target: T1, KDR (VEGFR-2, Flk-1), full-length …; assay: competition with 125I-VEGF for specific binding to KDR-transfected 293H cells, % inhibition
From the text: as §3

[9] = target: T1, KDR (VEGFR-2, Flk-1), full-length …; assay: competition: corresponding free peptide against P12-conjugated microbubbles on KDR-transfected 293H cells, % binding (surface covered, relative)
Method: as §1

[10] = target: T1, KDR (VEGFR-2, Flk-1), full-length …; assay: competition with 125I-VEGF on KDR-transfected 293H cells
Method: Cells were used 24 h after transfection, and to prepare the cells for the assay, they were washed 3 times with room temperature M199 medium and placed in the refrigerator. […] Each dilution was added to three separate wells of mock and KDR transfected cells. After incubating at 4° C. for 2 h, the plates were washed 5 times with cold binding buffer, gently blotted dry and checked under a microscope for cell loss. 100 μL of solubilizing solution (2% Triton X-100, 10% Glycerol, 0.1% BSA) was added to each well and the plates were incubated at room temperature for 30 minutes. The solubilizing solution in each well was mixed by pipeting up and down, and transferred to 1.2 mL tubes. Each well was washed twice with 100 μL of solubilizing solution and the washes were added to the corresponding 1.2 mL tube.

[11] = target: T3, murine KDR-Fc (recombinant, R&D Systems #443-KD-050) (murine, UniProt P35918 20-762); assay: SPR (BIAcore), murine KDR-Fc 5000 RU; KD1 = kd1/ka1
T3 construct: Bought; also called rmKDR-Fc; recombinant murine KDR-Fc; not shown: Ig Fc region of the bought chimera

[12] = target: T3, murine KDR-Fc (recombinant, R&D Systems …); assay: SPR (BIAcore), murine KDR-Fc 2700 RU; KD1 = kd1/ka1
Method: All samples were injected in duplicate. For association, peptides were injected at 30 μL/min for 3 minutes using the kinject program. Following a 10 minute dissociation, any remaining peptide was stripped from the rmKDR-Fc surface with a quickinject of 50 mM NaOH+1M NaCl for 12s at 75 μL/min.
Sensorgrams were analyzed using the simultaneous ka/kd fitting program in the BIAevaluation software 3.1.

[13] = target: T1, KDR (VEGFR-2, Flk-1), full-length …; assay: displacement of P12-XB/streptavidin-HRP complex (5.5 nM) from KDR-expressing cells
Method: After determining the specific binding under each experimental condition, the IC₅₀ for each peptide was determined (where possible).

[14] = target: T1, KDR (VEGFR-2, Flk-1), full-length …; assay: binding of the 125I-labeled dimer to KDR- and mock-transfected 293H cells with and without 40% mouse serum, CPM bound
Method: Binding was performed with and without 40% mouse serum to evaluate the serum effect on binding to KDR-transfected cells. After washing away the unbound compound, the cells in each well were lysed with 0.5 N NaOH and the lysates were counted with a gamma counter.

T1 sequence (P35968 20-1356): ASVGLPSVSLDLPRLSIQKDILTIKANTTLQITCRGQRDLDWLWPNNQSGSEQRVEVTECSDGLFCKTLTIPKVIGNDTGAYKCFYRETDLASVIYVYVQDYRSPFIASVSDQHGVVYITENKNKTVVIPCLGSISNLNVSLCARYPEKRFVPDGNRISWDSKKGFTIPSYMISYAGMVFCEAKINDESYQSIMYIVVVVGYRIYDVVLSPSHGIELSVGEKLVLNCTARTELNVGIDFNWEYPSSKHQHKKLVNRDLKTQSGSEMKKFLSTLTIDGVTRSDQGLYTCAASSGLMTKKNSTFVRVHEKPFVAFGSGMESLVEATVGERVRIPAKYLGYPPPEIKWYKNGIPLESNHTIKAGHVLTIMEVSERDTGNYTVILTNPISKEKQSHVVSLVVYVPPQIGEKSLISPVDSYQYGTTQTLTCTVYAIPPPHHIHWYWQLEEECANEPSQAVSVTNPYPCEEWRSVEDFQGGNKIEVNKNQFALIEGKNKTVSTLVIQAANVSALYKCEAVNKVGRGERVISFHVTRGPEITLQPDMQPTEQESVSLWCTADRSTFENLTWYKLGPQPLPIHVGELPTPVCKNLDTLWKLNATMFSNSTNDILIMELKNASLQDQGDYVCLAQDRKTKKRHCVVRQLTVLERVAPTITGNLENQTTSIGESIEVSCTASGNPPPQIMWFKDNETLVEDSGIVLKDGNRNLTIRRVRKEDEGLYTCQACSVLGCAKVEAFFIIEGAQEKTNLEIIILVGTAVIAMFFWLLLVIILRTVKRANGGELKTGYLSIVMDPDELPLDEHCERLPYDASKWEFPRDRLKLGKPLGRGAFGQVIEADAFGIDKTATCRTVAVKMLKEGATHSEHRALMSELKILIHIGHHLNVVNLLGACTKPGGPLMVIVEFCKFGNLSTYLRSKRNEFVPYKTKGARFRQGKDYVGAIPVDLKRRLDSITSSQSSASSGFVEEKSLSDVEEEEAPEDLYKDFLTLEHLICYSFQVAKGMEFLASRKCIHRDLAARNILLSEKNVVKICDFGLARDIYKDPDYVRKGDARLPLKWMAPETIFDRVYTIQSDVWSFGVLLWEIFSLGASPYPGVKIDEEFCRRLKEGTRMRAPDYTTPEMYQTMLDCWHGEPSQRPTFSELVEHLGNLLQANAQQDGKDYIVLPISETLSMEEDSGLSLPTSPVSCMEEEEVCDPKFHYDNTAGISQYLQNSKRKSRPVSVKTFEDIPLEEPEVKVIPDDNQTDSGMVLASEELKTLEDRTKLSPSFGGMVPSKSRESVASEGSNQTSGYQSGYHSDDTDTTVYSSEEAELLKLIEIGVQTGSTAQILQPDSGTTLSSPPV
T3 sequence (P35918 20-762): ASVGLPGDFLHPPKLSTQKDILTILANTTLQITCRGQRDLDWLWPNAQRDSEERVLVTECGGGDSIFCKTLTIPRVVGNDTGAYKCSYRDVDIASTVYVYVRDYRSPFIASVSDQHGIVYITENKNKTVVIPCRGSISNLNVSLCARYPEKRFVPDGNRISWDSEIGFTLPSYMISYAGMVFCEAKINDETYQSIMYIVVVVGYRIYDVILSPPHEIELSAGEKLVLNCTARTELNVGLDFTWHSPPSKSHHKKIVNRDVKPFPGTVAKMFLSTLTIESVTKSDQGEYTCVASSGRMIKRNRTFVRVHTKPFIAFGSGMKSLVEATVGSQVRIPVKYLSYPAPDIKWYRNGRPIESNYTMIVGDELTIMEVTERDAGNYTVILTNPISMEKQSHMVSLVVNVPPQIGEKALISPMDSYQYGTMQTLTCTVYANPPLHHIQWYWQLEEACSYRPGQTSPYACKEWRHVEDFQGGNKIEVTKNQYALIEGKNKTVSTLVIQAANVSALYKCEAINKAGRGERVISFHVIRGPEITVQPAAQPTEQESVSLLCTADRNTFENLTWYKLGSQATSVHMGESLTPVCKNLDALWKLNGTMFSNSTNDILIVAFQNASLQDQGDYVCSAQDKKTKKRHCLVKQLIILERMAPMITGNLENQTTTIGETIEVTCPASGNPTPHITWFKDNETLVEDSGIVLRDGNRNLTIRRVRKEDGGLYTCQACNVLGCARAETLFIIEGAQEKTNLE
T2 sequence (P35968 20-764, stated change not applied): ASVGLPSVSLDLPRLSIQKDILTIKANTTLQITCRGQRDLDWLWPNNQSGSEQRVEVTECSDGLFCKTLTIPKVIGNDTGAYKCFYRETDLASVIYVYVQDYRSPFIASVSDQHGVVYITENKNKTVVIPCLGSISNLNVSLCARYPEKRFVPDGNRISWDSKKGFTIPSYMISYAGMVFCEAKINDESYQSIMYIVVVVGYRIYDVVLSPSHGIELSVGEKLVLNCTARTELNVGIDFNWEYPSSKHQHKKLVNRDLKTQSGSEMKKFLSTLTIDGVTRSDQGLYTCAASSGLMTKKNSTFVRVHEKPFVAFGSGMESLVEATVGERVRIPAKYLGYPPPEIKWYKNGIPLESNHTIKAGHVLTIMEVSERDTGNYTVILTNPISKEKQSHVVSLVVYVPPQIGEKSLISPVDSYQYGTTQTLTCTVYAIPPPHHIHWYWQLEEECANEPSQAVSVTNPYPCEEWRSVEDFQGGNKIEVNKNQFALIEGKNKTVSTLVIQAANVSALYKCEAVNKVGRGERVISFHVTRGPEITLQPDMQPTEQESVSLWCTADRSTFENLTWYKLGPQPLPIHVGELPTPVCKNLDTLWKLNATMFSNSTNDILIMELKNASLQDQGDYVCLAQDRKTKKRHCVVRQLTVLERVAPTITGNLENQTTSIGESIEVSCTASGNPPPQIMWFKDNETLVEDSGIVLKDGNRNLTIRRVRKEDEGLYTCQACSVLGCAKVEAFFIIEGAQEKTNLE

B1: D23 (peptide)
P12-derived peptide: Ac-AGPTWCEDDWYYCWLFGTGGGK-NH2
truncated P6-derived peptide: Ac-VCWEDSWGGEVCFRYDPGGGK-NH2
modifications: disulfide I:6-I:13, II:2-II:12; not fully specified (bridges)
notes: Free, not on microbubbles (the list holds only the conjugate m37); The text says only 'corresponding free' dimeric peptide; also called free dimer
IC50 (read off the curve) [1]: ~30 nM
IC50 (read off the curve) [2]: ~20 nM

B2: P7-E (peptide)
peptide: Ac-GDWWECK(ivDde′)REEYRNTTWCAWADPGGGK-NH2
modifications: disulfide 6-17 (inferred)
VEGF-induced KDR phosphorylation in HUVECs (immunoblot) [3]: ≥ 50 % inhibition at 10 µM

B3: P8-D (peptide)
peptide: Ac-GDPDTCTMWGDSGRWYCFPADPGGGK-NH2
modifications: disulfide 6-17 (inferred)
VEGF-induced KDR phosphorylation in HUVECs (immunoblot) [3]: ≥ 50 % inhibition at 10 µM

B4: P4 (peptide)
peptide: AGDSWCSTEYTYCEMIGT
modifications: disulfide 6-13; not fully specified
Kd [4]: > 2000 nM

B5: P13-D (peptide)
peptide: Ac-AQDWYYDEILSMADQLRHAFLSGG-NH2
binding result [5]: binds

B6: P13 conjugated to microbubbles (peptide)
peptide: AQDWYYDEILSMADQLRHAFLSGG
modifications: also: conjugated to microbubbles
binding result [6]: binds

B7: 99mTc-labeled D18 (peptide)
peptide 1: Ac-APGTWCDYDWEYCWLGTFGGGK-NH2
peptide 2: Ac-GVDFRCEWSDWGEVGCRSPDYGGGK-NH2
modifications: disulfide I:6-I:13, II:6-II:16; not fully specified (some residues, bridges); printed as Ac-APGTWC*DYDWEYC*WLGTFGGGK{PnAO6-Glut-K[Ac-GVDFRC*EWSDWGEVGC*RSPDYGGGK(JJ-Glut)-NH2]}—NH2; also: 99mTc complex on PnAO6
notes: also called scrambled derivative of D10
binding result [7]: no binding (tested: 10.0 uCi/mL)

B8: PG-1 (peptide)
peptide: Ac-ERVTTCWPGEYGGVECYSVAY-NH2
modifications: not fully specified (bridges); printed as Ac-ERVTTCWPGEYGGVECYSVAY—NH2; cysteine pairing not given here
binding result [8]: binds

B9: P11-D (peptide)
peptide: Ac-AQGDYVYWEIIELTGATDHTPPGGGK-NH2
VEGF-induced KDR phosphorylation in HUVECs (immunoblot) [3]: ≥ 50 % inhibition at 10 µM

B10: P12 (peptide)
peptide: AGPTWCEDDWYYCWLFGT
modifications: disulfide 6-13
notes: the list holds only the microbubble conjugate m56 and other P12 derivatives
binding result [9]: binds

B11: D3 (peptide)
peptide 1: VCWEDSWGGEVCFRYDPGGGK
peptide 2: VCWEDSWGGEVCFRYDPGGGK
modifications: not fully specified; N-acetyl; C2-C12 disulfide; C-terminal Lys amide, side chain joined to linker; N-acetyl; C2-C12 disulfide; C-terminal amide; Lys21 side chain bears Biotin-JJK branch and linker
binding result [5]: binds

B12: D24 (peptide)
peptide 1: AGPTWCEDDWYYCWLFGTGGGK
peptide 2: VCWEDSWGGEVCFRYDPGGGK
modifications: not fully specified; N-acetyl; C2-C12 disulfide; C-terminal amide; Lys21 side chain joined to JJ-glutaryl linker; N-acetyl; C6-C13 disulfide; C-terminal amide; Lys22 side chain bears SATA-JJ-Lys branch
IC50, VEGF-induced migration of HUVECs [3]: 5 nM

B13: P6-D (peptide)
peptide: Ac-GDSRVCWEDSWGGEVCFRYDPGGGK-NH2
modifications: disulfide 6-16 (inferred)
IC50, VEGF-induced KDR phosphorylation in HUVECs [3]: 1000 nM
VEGF-induced KDR phosphorylation in HUVECs (immunoblot) [3]: ≥ 50 % inhibition at 10 µM

B14: D17 (peptide)
peptide 1: AQDWYYDEILGRGGRGGRGGK
peptide 2: VCWEDSWGGEVCFRYDPGGGK
modifications: not fully specified; N-acetyl; C2-C12 disulfide; C-terminal amide; Lys21 side chain joined to JJ-glutaryl linker; N-acetyl; J (8-amino-3,6-dioxaoctanoyl) between Leu10 and the next Gly; C-terminal Lys side chain bears the branching Lys; C-terminal amide
IC50, VEGF-induced migration of HUVECs [3]: ~250 nM

B15: D2 (peptide)
peptide 1: AGPTWCEDDWYYCWLFGTGGGK
peptide 2: AGPTWCEDDWYYCWLFGTK
modifications: not fully specified; N-acetyl; C6-C13 disulfide; J (8-amino-3,6-dioxaoctanoyl) between Thr18 and the C-terminal Lys amide, whose side chain is joined to the linker; N-acetyl; C6-C13 disulfide; C-terminal amide; Lys22 side chain bears branch/linker
binding result [5]: binds

B16: P6 (peptide)
peptide: GDSRVCWEDSWGGEVCFRYDP
modifications: disulfide 6-16 (inferred)
% inhibition of 125I-VEGF binding at 0.3 µM [10]: 52.3%
% inhibition of 125I-VEGF binding at 30 µM [10]: 96.3%

B17: P9-D (peptide)
peptide: Ac-AQEPEGYAYWEVITLYHEEDGDGGK-NH2
VEGF-induced KDR phosphorylation in HUVECs (immunoblot) [3]: ≥ 50 % inhibition at 10 µM

B18: D1 (peptide)
peptide 1: AGPTWCEDDWYYCWLFGTGGGK
peptide 2: VCWEDSWGGEVCFRYDPGGGK
modifications: not fully specified; N-acetyl; C2-C12 disulfide; C-terminal Lys amide (printed as NH(CH2)4-(S)-CH(..NH)CONH2), side chain joined to linker; N-acetyl; C6-C13 disulfide; C-terminal amide; Lys22 side chain bears branch/linker
notes: J = 8-amino-3,6-dioxaoctanoyl; also called DI
IC50 in the activation assay against that of D2 [3]: ≥ 100 fold lower than D2

B19: P12-XB (peptide)
peptide: Ac-AGPTWCEDDWYYCWLFGTGGGK([AEEA-AEEA-Biotin])-NH2
modifications: disulfide 6-13
SMILES: CC(=O)N[C@@H](C)C(=O)NCC(=O)N1CCC[C@H]1C(=O)N[C@H](C(=O)N[C@@H](Cc1c[nH]c2ccccc12)C(=O)N[C@H]1CSSC[C@@H](C(=O)N[C@@H](Cc2c[nH]c3ccccc23)C(=O)N[C@@H](CC(C)C)C(=O)N[C@@H](Cc2ccccc2)C(=O)NCC(=O)N[C@H](C(=O)NCC(=O)NCC(=O)NCC(=O)N[C@@H](CCCCNC(=O)COCCOCCNC(=O)COCCOCCNC(=O)CCCC[C@@H]2SC[C@@H]3NC(=O)N[C@@H]32)C(N)=O)[C@@H](C)O)NC(=O)[C@H](Cc2ccc(O)cc2)NC(=O)[C@H](Cc2ccc(O)cc2)NC(=O)[C@H](Cc2c[nH]c3ccccc23)NC(=O)[C@H](CC(=O)O)NC(=O)[C@H](CC(=O)O)NC(=O)[C@H](CCC(=O)O)NC1=O)[C@@H](C)O
notes: Free monomeric peptide
IC50, VEGF-induced KDR phosphorylation in HUVECs [3]: 100 nM
% inhibition of 125I-VEGF binding at 0.3 µM [10]: 81%
% inhibition of 125I-VEGF binding at 30 µM [10]: 104%

B20: Fluorescein labeled P12-G (peptide)
peptide: Ac-AGPTWCEDDWYYCWLFGTGGGK-NH2
modifications: disulfide 6-13; also: fluorescein label (site not given here)
Kd [11]: 33.6 nM
Kd [12]: 36.4 nM

B21: F1 (peptide)
peptide: Ac-DWYYGGGK-NH2
IC50 [13]: 850 nM

B22: P2-D (peptide)
peptide: Ac-AGWIECYHPDGICYHFGTGGGK-NH2
modifications: disulfide 6-13 (inferred)
VEGF-induced KDR phosphorylation in HUVECs (immunoblot) [3]: ≥ 50 % inhibition at 10 µM

B23: 125I-labeled D5 (peptide)
peptide 1: VCWEDSWGGEVCFRYDPGGGK
peptide 2: AGPTWCEDDWYYCWLFGTGGGK
modifications: not fully specified; N-acetyl; C6-C13 disulfide; C-terminal Lys amide, side chain carries the branching Lys; 125I Bolton-Hunter label on the free amine; N-acetyl; C2-C12 disulfide; C-terminal amide; Lys21 side chain joined to JJ-glutaryl linker
binding result [14]: binds

B24: P10-D (peptide)
peptide: Ac-AQAFPRFGGDDYWIQQYLRYTDGGK-NH2
VEGF-induced KDR phosphorylation in HUVECs (immunoblot) [3]: ≥ 50 % inhibition at 10 µM

B25: P3-D (peptide)
peptide: Ac-AGWLECYAEFGHCYNFGTGGGK-NH2
modifications: disulfide 6-13 (inferred)
VEGF-induced KDR phosphorylation in HUVECs (immunoblot) [3]: ≥ 50 % inhibition at 10 µM
